Measured values: patent US20220073631A1

Legend:
[1] = target: human IL-4Rα (Shanghai Novoprotein Technology Co., Ltd) (human) (UniProt P24394); assay: SPR, Biacore T200, antibody captured on protein A, antigen as analyte, 25 C, 1:1 model
[2] = target: hIL-4Rα-ECD (wild-type hIL-4Rα extracellular domain with C-terminus his-tag) (human) (UniProt P24394); assay: SPR, Biacore T200, by the methods of Example 2; mean of three experiments

B1: Dupilumab (antibody, INN chains, looked up, V domains shown)
VH: EVQLVESGGGLEQPGGSLRLSCAGSGFTFRDYAMTWVRQAPGKGLEWVSSISGSGGNTYYADSVKGRFTISRDNSKNTLYLQMNSLRAEDTAVYYCAKDRLSITIRPRYYGLDVWGQGTTVTVSS
VL: DIVMTQSPLSLPVTPGEPASISCRSSQSLLYSIGYNYLDWYLQKSGQSPQLLIYLGSNRASGVPDRFSGSGSGTDFTLKISRVEAEDVGFYYCMQALQTPYTFGQGTKLEIKR
Q: What does the source list for B1?
A: Kd [1]: 0.136 nM; koff [1]: 0.00011 s⁻¹; kon [1]: 808000 M⁻¹ s⁻¹; Kd [2]: 0.0588 nM; koff [2]: 4.29e-05 s⁻¹; kon [2]: 707000 M⁻¹ s⁻¹
